We go through six molecules from patent US20230127946A1 (SUZHOU PRO HEAL PHARMACEUTICALS TECHNOLOGY, published 2023).

The Kd is a measure of binding affinity in units of concentration. A high value points to lower affinity. Usually koff stands for a measure of how fast the partners let go of each other. Low values mean a long-lived complex, high ones a short-lived complex. Usually kon stands for a measure of how fast the partners come together. Low readings indicate slow association, high ones fast association.

One assay addresses IGF-1R on MCF-7 cells (UniProt P08069 31-1367, limits assumed). Nature of the assay: cell-based or functional assay.
Another assay has as its target T1, Human IGF-1R protein (human, UniProt P08069 31-932).
T1 construct: Bought protein; also called human IGF-1R (ARCO, No. IGR-H5229)
The assay is described as follows: BLI (Octet RED96), antibody captured on AHC biosensor, IGF-1R in solution, 1:1 model. The text has this: After 14 days of culture, the culture supernatant was collected by centrifugation, and purify the antibodies with affinity purification column. Octet RED96 protein interaction workstation was used to detect the affinity of the above purified antibodies with human IGF-1R (Human IGF-1R, ARCO, No. IGR-H5229) separately. Biosensor AHC (18-5060) was used to capture the samples, and then the captured samples were compared with human IGF-1R. The dynamics of binding and dissociation of […] were detected. Dynamics uses 1:1 combined model for fitting analysis. The brief action steps are: protein loading for 200 s, binding for 180 s, dissociation for 300 s, regeneration for 30 s.
On the technique in general: BLI is a label-free optical method that tracks binding on a fibre tip over time.

T1 sequence (P08069 31-932 limits assumed): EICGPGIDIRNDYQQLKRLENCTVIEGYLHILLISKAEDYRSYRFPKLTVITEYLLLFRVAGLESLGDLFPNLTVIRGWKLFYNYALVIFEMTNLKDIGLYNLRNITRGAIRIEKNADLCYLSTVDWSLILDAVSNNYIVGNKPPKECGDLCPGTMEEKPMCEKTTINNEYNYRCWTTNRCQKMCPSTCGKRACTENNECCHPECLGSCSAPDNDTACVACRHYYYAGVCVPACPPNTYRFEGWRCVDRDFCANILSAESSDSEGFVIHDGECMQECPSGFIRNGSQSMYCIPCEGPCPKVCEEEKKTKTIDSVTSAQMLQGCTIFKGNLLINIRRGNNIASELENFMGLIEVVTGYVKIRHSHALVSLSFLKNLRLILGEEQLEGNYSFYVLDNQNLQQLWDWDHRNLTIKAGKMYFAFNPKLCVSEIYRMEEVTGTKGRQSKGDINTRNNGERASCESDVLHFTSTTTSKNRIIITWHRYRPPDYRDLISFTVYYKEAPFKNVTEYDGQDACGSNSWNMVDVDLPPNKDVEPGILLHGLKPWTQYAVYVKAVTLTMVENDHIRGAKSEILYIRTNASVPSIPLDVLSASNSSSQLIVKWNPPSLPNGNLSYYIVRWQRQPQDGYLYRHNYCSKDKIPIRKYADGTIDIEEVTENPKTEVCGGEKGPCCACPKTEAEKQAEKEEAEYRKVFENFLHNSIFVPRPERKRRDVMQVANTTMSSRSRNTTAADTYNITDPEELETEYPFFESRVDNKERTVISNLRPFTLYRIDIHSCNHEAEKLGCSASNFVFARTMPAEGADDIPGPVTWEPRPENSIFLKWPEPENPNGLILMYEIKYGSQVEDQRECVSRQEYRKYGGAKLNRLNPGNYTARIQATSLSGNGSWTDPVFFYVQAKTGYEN
Sequence of IGF-1R on MCF-7 cells (P08069 31-1367 limits assumed): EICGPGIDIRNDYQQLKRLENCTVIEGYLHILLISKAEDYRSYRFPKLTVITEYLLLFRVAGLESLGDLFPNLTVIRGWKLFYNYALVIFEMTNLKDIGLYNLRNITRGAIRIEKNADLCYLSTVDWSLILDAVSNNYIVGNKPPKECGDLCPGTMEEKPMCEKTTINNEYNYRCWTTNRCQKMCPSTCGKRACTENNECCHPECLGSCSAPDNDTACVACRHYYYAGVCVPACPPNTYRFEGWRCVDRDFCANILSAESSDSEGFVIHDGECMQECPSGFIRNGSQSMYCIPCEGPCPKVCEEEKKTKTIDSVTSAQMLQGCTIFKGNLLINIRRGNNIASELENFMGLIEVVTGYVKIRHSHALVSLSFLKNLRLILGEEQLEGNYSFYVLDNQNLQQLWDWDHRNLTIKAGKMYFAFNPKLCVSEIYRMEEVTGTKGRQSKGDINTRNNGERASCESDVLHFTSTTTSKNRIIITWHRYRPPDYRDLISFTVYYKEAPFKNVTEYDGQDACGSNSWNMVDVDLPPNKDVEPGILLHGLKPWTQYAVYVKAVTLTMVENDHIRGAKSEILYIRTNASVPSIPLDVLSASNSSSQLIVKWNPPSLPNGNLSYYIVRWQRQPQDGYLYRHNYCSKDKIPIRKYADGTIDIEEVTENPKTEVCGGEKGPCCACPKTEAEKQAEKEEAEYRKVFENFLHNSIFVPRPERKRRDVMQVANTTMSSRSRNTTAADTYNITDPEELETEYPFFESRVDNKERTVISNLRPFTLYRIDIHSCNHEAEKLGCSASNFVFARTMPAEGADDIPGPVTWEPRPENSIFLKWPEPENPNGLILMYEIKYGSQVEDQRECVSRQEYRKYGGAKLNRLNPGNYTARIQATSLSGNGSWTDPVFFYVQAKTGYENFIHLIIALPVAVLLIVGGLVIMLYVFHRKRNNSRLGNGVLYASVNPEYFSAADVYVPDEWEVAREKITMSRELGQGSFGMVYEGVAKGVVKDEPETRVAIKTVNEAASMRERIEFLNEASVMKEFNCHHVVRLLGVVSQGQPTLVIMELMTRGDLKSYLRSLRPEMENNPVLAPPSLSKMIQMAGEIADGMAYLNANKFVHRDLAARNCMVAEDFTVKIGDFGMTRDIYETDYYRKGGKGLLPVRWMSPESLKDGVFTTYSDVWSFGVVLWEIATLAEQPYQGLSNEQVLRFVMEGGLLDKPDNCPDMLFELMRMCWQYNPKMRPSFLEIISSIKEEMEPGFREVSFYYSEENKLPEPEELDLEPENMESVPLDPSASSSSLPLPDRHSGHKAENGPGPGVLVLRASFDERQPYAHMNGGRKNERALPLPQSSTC

B1: PHP1003-7 (antibody, human IgG1, kappa, L234A L235A, V domains shown)
VH: QVQLQESGPGLVKPSETLSLTCTVSGYSITGGYLWNWIRQPPGKGLEWIGYISYDGTNNYKPSLKDRVTISRDTSKNQFSLKLSSVTAADTAVYYCARYGRVFFDYWGQGTLVTVSS
VL: DIVMTQSPLSLPVTPGEPASISCRSSQSIVHSNGNTYLQWYLQKPGQSPQLLIYKVSNRLYGVPDRFSGSGSGTDFTLKISRVEAEDVGVYYCFQGSHVPWTFGQGTKVEIKR
notes: Variable and constant regions are directly spliced
For the molecule B1, the “IC50 of inhibition of MCF-7 cell proliferation (CCK8, OD450)” value (“IC50 of inhibition … (CCK8, OD450)” below) with IGF-1R on MCF-7 cells was 2.14 µg/mL. In the assay with Human IGF-1R protein, this molecule displayed a Kd of 8.98 nM, a koff of 0.000883 s⁻¹ and an on-rate constant (kon) of 98300 M⁻¹ s⁻¹.

B2: PHP1003-5 (antibody, human IgG1, kappa, L234A L235A, V domains shown)
VH: EVQLLESGGGLVQPGGSLRLSCTASGFTFSSYAMNWVRQAPGKGLEWVSAISGSGGTTFYADSVKGRFTISRDNSRTTLYLQMNSLRAEDTAVYYCAKDLGWSDSYYYYYGMDVWGQGTTVTVSS
VL: DIQMTQFPSSLSASVGDRVTITCRASQGIRNDLGWYQQKPGKAPKRLIYAASRLHRGVPSRFSGSGSGTEFTLTISSLQPEDFATYYCLQHNSYPCSFGQGTKLEIKR
notes: as for B1
For B2, the “IC50 of inhibition … (CCK8, OD450)” value with IGF-1R on MCF-7 cells was 0.96 µg/mL. In the assay with Human IGF-1R protein, the Kd was 0.701 nM, the koff came out at 0.000396 s⁻¹ and the kon stood at 565000 M⁻¹ s⁻¹.

B3: PHP1003-2 (antibody, human IgG1, kappa, L234A L235A, V domains shown)
VH: EVQLVQSGGGLVKPGGSLRLSCAASGFTFSSFAMHWVRQAPGKGLEWISVIDTRGATYYADSVKGRFTISRDNAKNSLYLQMNSLRAEDTAVYYCARLGNFYYGMDVWGQGTTVTVSS
VL: EIVLTQSPGTLSVSPGERATLSCRASQSIGSSLHWYQQKPGQAPRLLIKYASQSLSGIPDRFSGSGSGTDFTLTISRLEPEDFAVYYCHQSSRLPHTFGQGTKVEIKR
notes: as for B1
In the case of B3, the “IC50 of inhibition … (CCK8, OD450)” value in the assay with IGF-1R on MCF-7 cells turned out to be 3.93 µg/mL. Further, in the assay with Human IGF-1R protein, the dissociation constant (Kd) worked out at 3.83 nM, the off-rate constant (koff) came out at 0.000874 s⁻¹ and the on-rate (kon) was found to be 228000 M⁻¹ s⁻¹.

B4: PHP1003-4 (antibody, human IgG1, kappa, L234A L235A, V domains shown)
VH: EVQLVQSGAEVKKPGSSVKVSCKASGGTFSSYAISWVRQAPGQGLEWMGGIIPIFGTANYAQKFQGRVTITADKSTSTAYMELSSLRSEDTAVYYCARAPLRFLEWSTQDHYYYYYMDVWGKGTTVTVSS
VL: SSELTQDPAVSVALGQTVRITCQGDSLRSYYATWYQQKPGQAPILVIYGENKRPSGIPDRFSGSSSGNTASLTITGAQAEDEADYYCKSRDGSGQHLVFGGGTKLTVLR
notes: as for B1
As to B4, in the assay with IGF-1R on MCF-7 cells, the “IC50 of inhibition … (CCK8, OD450)” value was 4.05 µg/mL. In addition, in the assay with Human IGF-1R protein, the affinity, expressed as Kd, was 5.91 nM; the koff amounted to 0.00146 s⁻¹; the kon came out at 247000 M⁻¹ s⁻¹.

B5: PHP1003-6 (antibody, human IgG1, kappa, L234A L235A, V domains shown)
VH: QVQLQESGGGVVQPGRSLRLSCSASGFTFSDYYMYWVRQAPGKGLEWVAYITNYGGSTYYPDTVKGRFTISRDNAKNTLFLQMDSLRPEDTGVYFCARQSNYDYDGWFAYWGQGTPVTVSS
VL: DIQLTQSPSSLSASVGDRVTITCKASQEVGTAVAWYQQKPGKAPKLLIYWASTRHTGVPSRFSGSGSGTDFTFTISSLQPEDIATYFCQQYSNYPLTFGQGTKVEIKR
notes: as for B1
As to B5, the “IC50 of inhibition … (CCK8, OD450)” value with IGF-1R on MCF-7 cells is 3.81 µg/mL. In the assay with Human IGF-1R protein, this molecule displayed a Kd of 1.12 nM, an off-rate constant (koff) of 0.000472 s⁻¹ and an on-rate (kon) of 422000 M⁻¹ s⁻¹.

B6: PHP1003-1 (antibody, human IgG1, kappa, L234A L235A, V domains shown)
VH: QVQLQESGPGLVKPSGTLSLTCAVSGGSISSSNWWSWVRQPPGKGLEWIGEIYHSGSTNYNPSLKSRVTISVDKSKNQFSLKLSSVTAADTAVYYCARWTGRTDAFDIWGQGTMVTVSS
VL: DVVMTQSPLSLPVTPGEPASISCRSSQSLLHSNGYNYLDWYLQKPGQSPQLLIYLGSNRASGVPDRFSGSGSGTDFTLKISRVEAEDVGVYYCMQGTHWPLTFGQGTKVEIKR
notes: Variable and constant regions are directly spliced; also called anti-IGF-1R antibody PHP1003-1
As to B6, the “IC50 of inhibition … (CCK8, OD450)” value with IGF-1R on MCF-7 cells is 2.37 µg/mL. In the assay with Human IGF-1R protein, this molecule showed a dissociation constant Kd of 1.27 nM, a koff of 0.000347 s⁻¹ and an on-rate (kon) of 274000 M⁻¹ s⁻¹.
